Source: US20160257732A1 (published 2016)
Positions count from the first letter of the chain named.

B1: Antibody 12 (antibody, V domains shown)
VH: QVQLQQSGPGLVKPSQTLSLTCAISGDSVSSYNAVWNWIRQSPSRGLEWLGRTYYRSGWYNDYAESVKSRITINPDTSKNQFSLQLNSVTPEDTAVYYCARSGHITVFGVNVDAFDMWGQGTMVTVSS
VL: DIQMTQSPSSLSASVGDRVTITCRTSQSLSSYTHWYQQKPGKAPKLLIYAASSRGSGVPSRFSGSGSGTDFTLTISSLQPEDFATYYCQQSRTFGQGTKVEIK
B2: Antibody 5 (antibody, V domains shown)
VH: QVQLQQSGPGLVKPSQTLSLTCAISGDRVSSNSAVWNWIRQSPSRGLEWLGRTYYRSKWYYDYAESVKSRIVIDPDTSKNQVSLQLNSVTPEDSAIYYCARGGHITVFGLNIDAYDIWGQGAMVTVSS
VL: DIQMTQSPSSLSASVGDRVTISCRAQSLSSYLHWYQQKPGQPPKLLIYAATTLQSGVPSRFSGSGSGTDFTLTISTFQAEDVATYYCQQSRTFGQGTKVEIK
B3: Antibody 6 (antibody, V domains shown)
VH: B2 VH with V107E
VL: B2 VL
B4: Antibody 3 (antibody, V domains shown)
VH: B1 VH with Q6E, Y32N, G58K, I73V, Q85H, N87K, Y97F, A100V
VL: B1 VL with T33L, R54L, G55Q
B5: Antibody 10 (antibody, V domains shown)
VH: QVQLQQSGPGLVKPSQTLSLTCAISGDSVSSNSATWNWIRQSPSRGLEWLGRTYYRSKWYNDYADFLKRRITINPDTSNNEVSLRLTSVTPDDTALYYCARGGHITVFGVNIDAFDVWGQGTMVTVSS
VL: B1 VL with V19I, T22S, S30R, T33L, A51S, S53T, R54L, G55Q, S77N, Q90L
B6: Antibody 8 (antibody, V domains shown)
VH: QVQLQQSGPGLVKPSQTLSLTCVISGDTVSSNRATWNWMRQSPLRGLEWLGRTYYRSKWYNDYAVSVKSRVVINPDTSKNQVSLQLNTVTPDDSGVYFCARGGHITVFGVNIDAFDIWGLGTKVTVSS
VL: DIQMTQSPSSLSASVGDRVTISCRASQRLNSYLHWYQQTPGQAPKLLIYATSTLQSGVSPRFSGSGSGTDFTLTISSLQPEDVATYYCQLSRTFGHGTKVEIK
B7: Antibody 11 (antibody, V domains shown)
VH: B1 VH
VL: B1 VL with G55L
B8: Antibody 13 (antibody, V domains shown)
VH: B1 VH
VL: B1 VL with T33D, G55L
B9: Antibody 15 (antibody, V domains shown)
VH: B1 VH with Y32N, G58K, M123T
VL: B1 VL
B10: Antibody 14 (antibody, V domains shown)
VH: B1 VH with Y32N, G58K, M123T
VL: B1 VL with G55L

These binders were tested against rHK68_I45N H3 HA (influenza A virus) (assay: cell-based or functional assay).

Row | Binder | Avg. Neut., microneutralization [µg/mL]
1 | B1 | 1.94

These binders were tested against rHK68_A196T H3 HA (influenza A virus) (assay: cell-based or functional assay).

Row | Binder | Avg. Neut., microneutralization [µg/mL]
2 | B1 | 4.06

The binders below were run against rHK68_K156Q H3 HA (influenza A virus) (assay: cell-based or functional assay).

Row | Binder | Avg. Neut., microneutralization [µg/mL]
3 | B1 | 3.33

These binders were tested against rHK68_Q42R H3 HA (influenza A virus) (assay: cell-based or functional assay).

Row | Binder | Avg. Neut., microneutralization [µg/mL]
4 | B1 | 11.1

What follows are binders tested against rHK68_I18R H3 HA (influenza A virus) (assay: cell-based or functional assay).

Row | Binder | Avg. Neut., microneutralization [µg/mL]
5 | B1 | > 200

Each binder was assayed against rHK68_D19Y H3 HA (influenza A virus) (assay: cell-based or functional assay).

Row | Binder | Avg. Neut., microneutralization [µg/mL]
6 | B1 | > 200

The binders below were run against rHK68_I45T H3 HA (influenza A virus) (assay: cell-based or functional assay).

Row | Binder | Avg. Neut., microneutralization [µg/mL]
7 | B1 | 3.38

These binders were tested against rHK68_D19N H3 HA (influenza A virus) (assay: cell-based or functional assay).

Row | Binder | Avg. Neut., microneutralization [µg/mL]
8 | B1 | 3.04

These binders were tested against T1, HA of A/Puerto Rico/8/34 (H1N1) (influenza A virus, UniProt P03452 18-565) (assay: cell-based or functional assay).
T1 sequence (P03452 18-565 limits assumed): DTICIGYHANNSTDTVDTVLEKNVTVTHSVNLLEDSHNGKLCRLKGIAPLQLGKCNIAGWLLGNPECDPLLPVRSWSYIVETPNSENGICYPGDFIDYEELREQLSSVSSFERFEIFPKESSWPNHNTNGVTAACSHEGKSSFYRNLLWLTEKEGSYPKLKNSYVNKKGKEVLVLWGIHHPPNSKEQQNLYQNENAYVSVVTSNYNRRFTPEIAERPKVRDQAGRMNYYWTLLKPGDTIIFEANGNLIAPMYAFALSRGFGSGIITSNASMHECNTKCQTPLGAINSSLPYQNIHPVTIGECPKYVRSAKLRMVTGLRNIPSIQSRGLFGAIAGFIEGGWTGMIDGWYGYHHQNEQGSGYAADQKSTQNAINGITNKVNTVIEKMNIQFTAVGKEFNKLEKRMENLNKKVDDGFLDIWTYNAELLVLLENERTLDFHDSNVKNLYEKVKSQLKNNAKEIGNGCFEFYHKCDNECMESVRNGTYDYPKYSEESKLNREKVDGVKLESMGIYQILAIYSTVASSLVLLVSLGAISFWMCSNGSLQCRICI

Row | Binder | Neutralization IC50, H1-PR34 [µg/mL]
9 | B2 | 1.13
10 | B3 | 4.37
11 | B4 | 1.07
12 | B5 | 2.15
13 | B6 | 3.02

What follows are binders tested against HA of ca A/Wuhan/359/95 (H3N2) (influenza A virus) (assay: cell-based or functional assay).

Row | Binder | Neutralization IC50, H3-WH95 [µg/mL]
14 | B2 | 3.72
15 | B3 | 10.5
16 | B4 | 3.96
17 | B5 | 8.7
18 | B6 | > 50

Target: T1, HA of A/Puerto Rico/8/34 (H1N1)
Test: cell-based or functional assay
Remark: another data set of the same source

Row | Binder | Neutralization IC50, H1-PR34 [µg/mL] | Neutralization IC50, H1-PR34-OR [µg/mL]
19 | B4 | 2.17 | 1.39
20 | B7 | 0.88 | 0.73
21 | B1 | 1.07 | 0.69
22 | B8 | 1.3 | 0.88
23 | B9 | 1.47 | 0.9
24 | B10 | 1.25 | 0.83

Target: HA of ca A/Wuhan/359/95 (H3N2) (influenza A virus)
Test: cell-based or functional assay
Remark: another data set of the same source

Row | Binder | Neutralization IC50, H3-WH95 [µg/mL] | Neutralization IC50, H3-WH95-OR [µg/mL]
25 | B4 | 5.63 | 7.7
26 | B7 | 2.45 | 2.26
27 | B1 | 2.09 | 2.34
28 | B8 | 2.77 | 3.01
29 | B9 | 3.32 | 3.48
30 | B10 | 2.77 | 3.09
